Measurements taken from patent US20150299272A1 (UNIVERSITY OF NEWCASTLE UPON TYNE, published 2015).

Molecular target: Caf1-FLAG epitope NT (Yersinia pestis, UniProt P26948 1-170)
Test: co-expression in E. coli, western blot of partly heat-dissociated polymer

B1: Caf1 WT (naturally occurring Caf1 polypeptide monomer from Yersinia pestis; fraction 1 antigen polymer) (other)
chain: ADLTASTTATATLVEPARITLTYKEGAPITIMDNGNIDTELLVGTLTLGGYKTGTTSTSVNFTDAAGDPMYLTFTSQDGNNHQFTTKVIGKDSRDFDISPKVNGENLVGDDVVLATGSQDFFVRSIGSKGGKLAAGKYTDAVTVTVSNQ
- binding result: binds
